Results as given in paper PMC6876712, “MglA functions as a three-state GTPase to control movement reversals of Myxococcus xanthus” (Nature Communications, 2019).

T1: MglB (MglB-2 construct, 6xHis tag cleaved by TEV protease) (M. xanthus), Q1DB03
T1 chain: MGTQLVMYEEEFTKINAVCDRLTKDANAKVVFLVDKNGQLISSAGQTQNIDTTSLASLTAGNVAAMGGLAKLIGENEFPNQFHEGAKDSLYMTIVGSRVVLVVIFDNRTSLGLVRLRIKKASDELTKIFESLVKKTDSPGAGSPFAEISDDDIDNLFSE


Columns and labels:
[1] = target: T1, MglB (MglB-2 construct, 6xHis tag …); experiment: SEC-MALS; MglB at 3 mg/mL in 20 mM Tris pH 7.5, 50 mM NaCl, 10 mM MgCl2; Superdex 75 10/300 GL; settings: remark: other sources report otherwise
[2] = target: T1, MglB (MglB-2 construct, 6xHis tag …); experiment: crystal structure; MglA-GTPγS/MglB complex; equimolar MglA and MglB with 20x GTPγS, purified by SEC; crystals in 0.2 M HEPES pH 7, 16% PEG 4000; 2.8 Å; settings: remark: other sources report otherwise
[3] = target: the molecule itself; experiment: crystal structure; unbound MglB (MglB-1), form 2 crystals in 0.1 M MES pH 6, 0.15 M ammonium sulfate, 15% PEG 4000; 20 molecules in the asymmetric unit; 2.39 Å

stoichiometry N [1] | stoichiometry N [2] | Binder | stoichiometry N [3]
2 | 2 | MglB (MglB-2 construct, 6xHis tag cleaved by TEV protease), Q1DB03 1-159 (natural protein) MGTQLVMYEEEFTKINAVCDRLTKDANAKVVFLVDKNGQLISSAGQTQNIDTTSLASLTAGNVAAMGGLAKLIGENEFPNQFHEGAKDSLYMTIVGSRVVLVVIFDNRTSLGLVRLRIKKASDELTKIFESLVKKTDSPGAGSPFAEISDDDIDNLFSE | 
 |  | MglB (MglB-1 construct, 34-residue N-terminal tag) (natural protein, M. xanthus, MglB, GAP of MglA, Myxococcus xanthus; residues 133-165 not visible in the crystal; No cleavage of the tag is described) GTQLVMYEEEFTKINAVCDRLTKDANAKVVFLVDKNGQLISSAGQTQNIDTTSLASLTAGNVAAMGGLAKLIGENEFPNQFHEGAKDSLYMTIVGSRVVLVVIFDNRTSLGLVRLRIKKASDELTKIFESLVKKTDSPGAGSPFAEISDDDIDNLFSE | 4
